The supplement of paper PMC12764529
± gives the half width of the 95% confidence interval.

Legend:
[1] = folding stability dG unfold from chymotrypsin proteolysis; higher = more stable
Method: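 Folding stability of de novo designed mini-proteins (<80 aa, no Cys; designed by TrROS, TrMRF, ProteinMPNN and the joint model) was measured by cDNA display proteolysis with trypsin and chymotrypsin. Each protease was used at 11 concentrations in a threefold dilution series plus a no-protease condition. K50 was inferred by Bayesian fitting of sequencing counts, and dG unfold was derived against a sequence-predicted unfolded-state K50 (Tsuboyama et al. method). Sequences shown include variable-length N-terminal GS-type padding (SAGGSAGG...) inside a display construct carrying a PA tag. Rows were kept only if the AF2 dimer inter-PAE was >15, to exclude likely homo-oligomers.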

[2] = folding stability dG unfold (combined trypsin and chymotrypsin); higher = more stable
Outline: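 K50 was inferred by Bayesian fitting of sequencing counts obtained after protease digestion of designed mini-proteins. Unfolding free energy was derived by comparison with a sequence-predicted unfolded-state K50 and a shared folded-state K50, for each protease or both combined. The mini-proteins were under 80 residues, had no cysteine, were carried in a PA-tagged cDNA display construct, and were kept only if AlphaFold2 dimer inter-PAE exceeded 15.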

Row | Sequence | folding stability dG unfold [1] | folding stability dG unfold [2]
1 | SAGGSAGGSAGGGERRRVLHINPEDGYIQRMEFDPDDGEPTGSETVPFKSPEDALDKLIDSAGGSAGGSAGG [r7_105_TrROS] | 0.342 ± 0.14 kcal/mol | -0.152 ± 0.2 kcal/mol
2 | SAGGSAGGSAGGGEYAKIKIKNPINPKYKEIEIEIPSNKKNVIINATGSGNATITEIKLESAGGSAGGSAGG [r7_687_TrMRF] | 0.177 ± 0.27 kcal/mol | -0.584 ± 0.49 kcal/mol
3 | SAGGSAGGSAGGGMILNITLIRPDGKPIVIEGPLDKPLYNPKKAGIENIPPEKLVKVEPRSAGGSAGGSAGG [r7_745_TrMRF] | -0.891 ± 0.8 kcal/mol | < -1 kcal/mol
4 | SAGGSAGGSAGGGMRLVEVPPGDPAAVEARLAELGPDARLLEVRRLPEEGRWVVLVSEESAGGSAGGSAGGS [r10_23_JUSTAS] | 0.643 ± 0.2 kcal/mol | -0.258 ± 0.33 kcal/mol
5 | SAGGSAGGSAGGGPMLRYTLTFTLPDSTVTKEFSSEEEVEEAKEQLPEEYPVDPNVTVSPSAGGSAGGSAGG [r7_18_JUSTAS] | -0.113 ± 0.43 kcal/mol | -0.22 ± 0.32 kcal/mol
6 | SAGGSAGGSAGGGPNIRTVTETTVEPTPDSVVTTRPVYYVDPSGTVLGSETTTTVDPNTTSAGGSAGGSAGG [r7_812_JUSTAS] | 0.179 ± 0.034 kcal/mol | -0.26 ± 0.13 kcal/mol
7 | SAGGSAGGSAGGGPPLPLRVEREEKVEKTPDDRVLIKRKVTVELPDRPLSEEESIEILLESAGGSAGGSAGG [r7_293_JUSTAS] | 0.146 ± 0.2 kcal/mol | -0.415 ± 0.25 kcal/mol
8 | SAGGSAGGSAGGIYIPLEDLEKNGLGFEELVEKLGVDVEIEVLETEPGKPVAKIRPKLGSAGGSAGGSAGGS [r10_855_TrMRF] | 0.968 ± 0.027 kcal/mol | 0.435 ± 0.093 kcal/mol
9 | SAGGSAGGSAGGKTLSKEEALKKAKELAEKGEKVKIEVKNKKTKKTETIEITKEELEKLSAGGSAGGSAGGS [r10_779_TrROS_Hall] | 0.47 ± 0.13 kcal/mol | 0.151 ± 0.44 kcal/mol
10 | SAGGSAGGSAGGLIPPNQKIKIKEIEPPNNEMNIDLEYPDNGKKVEFPFDSPEQALDALSAGGSAGGSAGGS [r10_1038_TrROS] | 0.658 ± 0.049 kcal/mol | 0.227 ± 0.14 kcal/mol
11 | SAGGSAGGSAGGLPINARPPNIAEVIRALRESGRYRVVEIRPFGDGAVIRVEKDGVPLESAGGSAGGSAGGS [r10_695_TrMRF] | 0.769 ± 0.19 kcal/mol | 0.0741 ± 0.34 kcal/mol
12 | SAGGSAGGSAGGMKIRVTHPTNKTEEIIPVSELKKIPGPYTIEPLGPDPELAEKIKKLLSAGGSAGGSAGGS [r10_419_JUSTAS] | 0.553 ± 0.22 kcal/mol | 0.142 ± 0.25 kcal/mol
13 | SAGGSAGGSAGGMKITLKVKKPDGTTTTITVDIDESKIEEIKEEIAPKGYEVEEAEIELESAGGSAGGSAGG [r7_159_JUSTAS] | 0.638 ± 0.12 kcal/mol | 0.00742 ± 0.36 kcal/mol
14 | SAGGSAGGSAGGMPAEEVQNIIEEQGFDGPNQTVTIDVPDGRRVKIEMPPNGMKLEVEDSAGGSAGGSAGGS [r10_604_TrROS] | 0.0665 ± 0.081 kcal/mol | -0.538 ± 0.31 kcal/mol
15 | SAGGSAGGSAGGMPPRLVEIPIFVPPTDPARAEALAEELREELGAEEVVVRIVLAPPGLGSAGGSAGGSAGG [r7_632_JUSTAS] | 0.982 ± 0.013 kcal/mol | 0.414 ± 0.072 kcal/mol
16 | SAGGSAGGSAGGMRTFPSESLETLPENGLRKKTLTVTYVPPDNPERSYVETEVEIIPSEVSAGGSAGGSAGG [r17_241_JUSTAS] | -1.03 ± 0.34 kcal/mol | < -1 kcal/mol
17 | SAGGSAGGSAGGMTETVTLTEVGVTTKTAPLPEGPLTTTPTVTVDRVITLPPSSPAALALSAGGSAGGSAGG [r7_889_JUSTAS] | -0.257 ± 0.42 kcal/mol | < -1 kcal/mol
18 | SAGGSAGGSAGGMTLTVKDPASDEWTTVDLSPEQLPEVRAAVPEGPVTFELEASDSVIELSAGGSAGGSAGG [r7_188_JUSTAS] | 0.94 ± 0.061 kcal/mol | 0.409 ± 0.059 kcal/mol
19 | SAGGSAGGSAGGMVKTTTQVSIDPNSDYRYTTTTTTVVDANGKPLATQTTLTVTKLAGTSSAGGSAGGSAGG [r7_616_JUSTAS] | -0.125 ± 0.34 kcal/mol | -0.516 ± 0.42 kcal/mol
20 | SAGGSAGGSAGGMYSVTLTPVSSPDGELRLRAVYPELGLVRDFDPATGRPVRVVPAALLSAGGSAGGSAGGS [r10_589_JUSTAS] | 0.411 ± 0.22 kcal/mol | -0.422 ± 0.26 kcal/mol
21 | SAGGSAGGSAGGNDPNGQEKEIPIDPGQRADEIAEEFKDEFNPDHVEIEASEEGYAEVRVSAGGSAGGSAGG [r7_273_TrROS] | 0.887 ± 0.044 kcal/mol | 0.348 ± 0.079 kcal/mol

Row | Sequence | folding stability dG unfold [1] | folding stability dG unfold [2]
22 | SAGGSAGGSAGGNVPIPFLPEGFDVEVKKIEVPTPGKVKLVLVPKNSDEEFELEFSPEELSAGGSAGGSAGG [r7_342_TrMRF] | -0.633 ± 0.2 kcal/mol | < -1 kcal/mol
23 | SAGGSAGGSAGGPELPEDVPVVEVVHLDLPFSPDEPEVVEEAEAKAAALEEGGALAEIRRSAGGSAGGSAGG [r11_519_JUSTAS] | 0.728 ± 0.06 kcal/mol | 0.0364 ± 0.097 kcal/mol
24 | SAGGSAGGSAGGPIKIKHNDGVEITIPADNVRSVDTNPGPGYIKITFPGNGQEFQIPIDSAGGSAGGSAGGS [r10_200_TrROS] | 0.00978 ± 0.031 kcal/mol | -0.306 ± 0.12 kcal/mol
25 | SAGGSAGGSAGGPIRIKNIENVNPDDGMFTVDVEFPDGKNHTYMIPPDQLEEPGDEIEIPSAGGSAGGSAGG [r7_117_TrROS] | -0.696 ± 0.54 kcal/mol | < -1 kcal/mol
26 | SAGGSAGGSAGGPLPVTVTVLERTHYPEEGLYTVKTEGGTVITLPPELIDKHPPGSTVLLSAGGSAGGSAGG [r11_124_JUSTAS] | -0.736 ± 0.82 kcal/mol | < -1 kcal/mol
27 | SAGGSAGGSAGGPMRLVRIPLDDGKIKVVPIPPGEAIPFENDNGEIYFMVTDDKIEIMPSAGGSAGGSAGGS [r10_817_TrROS] | 0.181 ± 0.44 kcal/mol | 0.0436 ± 0.15 kcal/mol
28 | SAGGSAGGSAGGPPPGDKIEIIVIKFEPRYDPDGEPKNPRIDSIEVITIPADDPDDLLEASAGGSAGGSAGG [r7_439_TrROS] | 0.805 ± 0.079 kcal/mol | 0.348 ± 0.34 kcal/mol
29 | SAGGSAGGSAGGPRVGVVRELPDDSRVALLEIEETLTSPGPDGTPRSRPFRAVFVVPLGSAGGSAGGSAGGS [r10_718_TrMRF] | 0.69 ± 0.26 kcal/mol | -0.16 ± 0.18 kcal/mol
30 | SAGGSAGGSAGGPSSLLDGTPVELSVSPVEVNSVSTVTLPNGSTVPVSKKVKKTVVSVVASAGGSAGGSAGG [r7_90_JUSTAS] | 0.61 ± 0.075 kcal/mol | 0.23 ± 0.097 kcal/mol
31 | SAGGSAGGSAGGPVLIRAVFTPPNGPVLELVVPSPEEVVELAKPFDVEVHIEPISPDDPFSAGGSAGGSAGG [r7_456_TrMRF] | -1.12 ± 0.45 kcal/mol | < -1 kcal/mol
32 | SAGGSAGGSAGGRIRLPGWEIEDVKVYETGDKPYYTITYKNPNGKPKKMLMPADDLDDFSAGGSAGGSAGGS [r10_645_TrROS] | -0.216 ± 0.61 kcal/mol | -0.618 ± 0.52 kcal/mol
33 | SAGGSAGGSAGGSAVEVDPNGGVTRTRYPGGAVRLETVSPTPDGSLATRTEEVELPGLASAGGSAGGSAGGS [r4_248_JUSTAS] | 0.871 ± 0.013 kcal/mol | 0.403 ± 0.051 kcal/mol
34 | SAGGSAGGSAGGSAVTSDGTEVEPDQLVEEATLTPPDGEPVRLRVYAVPDSDEVVTEAGSAGGSAGGSAGGS [r4_13_TrMRF] | 0.691 ± 0.26 kcal/mol | < -1 kcal/mol
35 | SAGGSAGGSAGGSDMEIVPRRIPDGFRLMVARNPEGTYTVQVWNPNGKPKWETIPPDEISAGGSAGGSAGGS [r4_120_TrROS] | -0.185 ± 0.22 kcal/mol | -0.485 ± 0.21 kcal/mol
36 | SAGGSAGGSAGGSDPSMSLETFVIPESTSTVTLTDPSGTLRTLTTGRDPLTLTEVLPPRSAGGSAGGSAGGS [r4_162_JUSTAS] | 0.459 ± 0.12 kcal/mol | -0.078 ± 0.17 kcal/mol
37 | SAGGSAGGSAGGSDSSVITFDIPVSEYPAKIKLSPETKTMTVVSTSPEGTVKVAIERPGSAGGSAGGSAGGS [r10_352_JUSTAS] | -0.297 ± 0.14 kcal/mol | -0.889 ± 0.48 kcal/mol
38 | SAGGSAGGSAGGSEEKPIPIKVKIWKPNPGELVEEKEYLIPSNGSAEEIKKAFPNAEISSAGGSAGGSAGGS [r4_187_TrMRF] | 0.689 ± 0.15 kcal/mol | 0.12 ± 0.3 kcal/mol
39 | SAGGSAGGSAGGSGPPHMRTTNEVTITLDGTVVSGSTPLPESLPPGVETYTTETYLPPLSAGGSAGGSAGGS [r4_436_JUSTAS] | -0.308 ± 0.13 kcal/mol | < -1 kcal/mol
40 | SAGGSAGGSAGGSGPPLRTEERVEEVTLPNGERLLVETTTLTDPVTGETTVSRSIRLPLSAGGSAGGSAGGS [r4_445_JUSTAS] | 0.53 ± 0.1 kcal/mol | -0.38 ± 0.19 kcal/mol
41 | SAGGSAGGSAGGSKIEVYKEPNKITIVIHPGNKPLVFTATEPIPIETLIKKAREAFPDASAGGSAGGSAGGS [r4_191_TrMRF] | 0.516 ± 0.12 kcal/mol | -0.0455 ± 0.13 kcal/mol
42 | SAGGSAGGSAGGSLVSTSPLPSSSTLVTEKGPSPEVTVTVVTVKPGGSRSVTTLPVSESSAGGSAGGSAGGS [r10_140_JUSTAS] | 0.474 ± 0.057 kcal/mol | -0.143 ± 0.12 kcal/mol
